Data as given in article PMC12557600.

Tests used:
Test in all cases: EMSA
Conditions in all cases: N16 of strand 1 = tetrahydrofuran (THF) abasic site analog; EMSA: 50 mM Tris pH 8.0, 1 mM EDTA, 0.2 mg/ml BSA, 50 mg/ml sucrose, 0.5 mg/ml bromophenol blue, 1 mM DTT; 2 nM DNA, at least 20 min; 10% 59:1 native gel …
[1] = biological target: APE1 N174A N174A (Homo sapiens) (UniProt P27695)
[2] = biological target: APE1 N174D N174D (Homo sapiens) (UniProt P27695)
[3] = biological target: APE1 N174K N174K (Homo sapiens) (UniProt P27695)
Sequence of APE1 N174K N174K (Homo sapiens) (P27695 whole entry N174K): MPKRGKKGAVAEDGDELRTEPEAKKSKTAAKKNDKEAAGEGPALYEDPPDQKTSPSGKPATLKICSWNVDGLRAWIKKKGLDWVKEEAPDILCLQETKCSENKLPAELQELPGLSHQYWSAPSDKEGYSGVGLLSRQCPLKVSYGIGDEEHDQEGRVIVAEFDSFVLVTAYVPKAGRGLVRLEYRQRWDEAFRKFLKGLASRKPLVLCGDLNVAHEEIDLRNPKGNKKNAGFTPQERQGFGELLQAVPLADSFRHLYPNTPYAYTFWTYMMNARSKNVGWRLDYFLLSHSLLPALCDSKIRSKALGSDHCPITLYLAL

APE1 WT (Homo sapiens) = APE1 WT (Homo sapiens) (UniProt P27695)
Sequence of APE1 WT (Homo sapiens) (P27695 whole entry): as the sequence (P27695 whole entry N174K) above, with K174N counted along it

Sequence of APE1 N174D N174D (Homo sapiens) (P27695 whole entry N174D): as the sequence (P27695 whole entry N174K) above, with K174D counted along it
Sequence of APE1 N174A N174A (Homo sapiens) (P27695 whole entry N174A): as the sequence (P27695 whole entry N174K) above, with K174A counted along it

Sequence: CGTTCGCTGATGCGCNCGACGGATCCGCAT / ATGCGGATCCGTCGAGCGCATCAGCGAACG [30-bp THF AP-DNA]
- Kd [1]: 44 nM
- Kd [2]: 13 nM
- Kd [3]: 17 nM
- Kd (APE1 WT (Homo sapiens)): 0.9 nM
